Columns and labels:
platelets [1] = assay: Platelet aggregation in human platelet-rich plasma; type: cell-based
Procedure: After obtaining informed consent from volunteers, blood was collected via plastic tubing using acid citrate-dextrose (38 mM citric acid; 75 mM sodium citrate; 135 mM glucose) as anticoagulant. Where indicated, volunteers had ingested 650 mg acetylsalicylic acid (ASA) 18 h prior to blood donation. […] The stock suspension of PRP was maintained at room temperature under 5% CO2-air. […] Total volumes were adjusted to 300 μl with TSG buffer (Marcus et al., J. Clin. Invest. 88:1690, 1991; Marcus et al., J. Clin. Invest. 99:1351, 1997). […] A mock-treated sample was also prepared in which the FSBA solution was replaced with water. After incubating at 37° for 90 min., the samples were centrifuged in a Centricon-10 filter unit (Amicon Corp.) for 1 hour at 5,500 rpm and buffer exchanged into PBS to remove unreacted material.

murine platelets = assay: Ex vivo aggregation of murine platelets; type: in vivo, C57BL/6J mice; details: PRP 1 hour after soluble CD39 4 mg/kg or aspirin 5 mg/kg
Procedure: C57BL/6J mice (6-8 wk) were obtained from Jackson Laboratories (Bar Harbor, Me.). […] 80 μL of 3.8% trisodium citrate was added to each mL of blood. […] The PRP contained 400-700×10^3 platelets per μL. All experiments were completed within 2 hours of blood collection. PRP (200 μL) was preincubated, for 3 min. at 37° C., with 100 μL Tris-buffered saline buffer ([…], 5 mM glucose, pH 7.4) in an aggregometer cuvette (Lumiaggregometer; Chrono-Log, Havertown, Pa.), and the platelet agonists ADP, collagen, or sodium arachidonate were added at the final concentrations indicated.

[2] = Murine model of stroke (middle cerebral artery occlusion); type: in vivo, mice
Procedure: Anesthetized mice were maintained at 37±2° C. during and for 90 min following surgery. A midline neck incision was made and the right carotid artery exposed. Middle cerebral artery occlusion was accomplished by advancing a 13-mm heat-blunt tipped 6-0 nylon suture via an arteriotomy in the external carotid stump. The external carotid artery was cauterized to secure hemostasis, and arterial flow reestablished. […] Surgical staples were used for wound closure. […]

[3] = Enzymatic (ATPase and ADPase) activity of site-directed mutants; type: biochemical
Procedure: Mutants were assayed for enzymatic (ATPase and ADPase) and platelet inhibitory (dose-dependent inhibition of platelet aggregation) activities. For one series of mutants, residues within the conserved apyrase regions were replaced with alanine.

[4] = Phosphate release assay for ATPase activity; type: biochemical; details: for ATPase activity, CPM × 10^3 (net counts): Table 3, 5-day 1× COS-1 sups; for ATPase activity, CPM Release × 10^3 (net counts): unconcentrated COS-1 CM
Procedure: This example describes an ATPase assay that may be used to track enzyme activity. Samples (approximately 100 μl of either concentrated CM or purified polypeptide) are combined with 20 μl of 10× assay buffer (200 mM HEPES, 1.2 M NaCl, 50 mM KCl, 15 mM CaCl2, 15 mM MgCl2 and 3 mM ATP) and sterile water is added to a final volume of 200 μl. Radiolabeled ATP (0.8 μCi γ [^32P] ATP; Amersham, Arlington Heights, Ill.) is added and the mixture incubated for 20 minutes at 37° C. […] After centrifugation (14K rpm for 10 minutes), the supernatant is assayed for free ^32P using a scintillation counter. Data are expressed as raw counts or net counts, or as picomoles of ATP degraded per minute. […] The transfections were repeated and the CM (10, 20 and 30 μL, unconcentrated) was assayed essentially as described in Example 7. […] ATPase levels in CM from COS-1 cells transfected with pIL2LFlagSolCD39 increased with time in culture over at least 4 days post-transfection. To determine whether activity was affected by removal of the N-terminal FLAG® tag, COS-1 cells were transfected with pIL2LFlagSolCD39 and pIL2LSolCD39 and supernatants (sups) were harvested after 5 days. Samples of 10, 20 and 30 μL of 1× sups were assayed for ATPase activity as described in Example 7. […] The expression of Trim1 and Trim2 constructs was analyzed in COS-1 cells cultured in 10 cm plates. After 5 days of incubation, 1× supernatants were examined via ELISA (using anti-CD39) and the phosphate-release assay described in Example 7. […] Expression levels, however, appeared to be reduced 3-4 fold.

[5] = Phosphate release assay for ATPase activity; type: biochemical; details: 100 μL of 10-fold concentrated CM from COS-1 transfectants; 10× buffer with 30 mM cold ATP
platelets [6] = assay: Ex vivo additive inhibition of platelet aggregation in patient platelet rich plasma; type: cell-based, human; details: patient PRP, no SolCD39

## COc1ccc2c(c1)c(CC(=O)O)c(C)n2C(=O)c1ccc(Cl)cc1 [indomethacin, reference compound]
Platelets [1]; PRP with or without 10 μM indomethacin, CM containing solCD39 from COS-1 and CHO cells
  platelet responsiveness to 5 μM ADP: partial reversal

## CC(=O)Oc1ccccc1C(=O)O [Aspirin, acetylsalicylic acid, reference compound]
Murine platelets; 2.5 μg/ml collagen
  ex vivo platelet aggregation, collagen: strongly aggregated
Murine platelets; 10 μM ADP
  ex vivo platelet aggregation, ADP: strongly aggregated
Murine platelets; 0.1 mM sodium arachidonate
  ex vivo platelet aggregation, arachidonate: blocked
[2]; 24 hours after stroke induction
  postischemic cerebral perfusion / blood flow: no improvement
[2]; following stroke, spectrophotometric
  intracerebral hemorrhage: increased
[2]; preoperative administration, aspirin 5 mg/kg
  cerebral infarct volume: not statistically significant

B1: E174A: CD39 mutant, Glutamate174 replaced with alanine (protein, UniProt P49961 1-510, looked up, variant E174A)
Ectonucleoside triphosphate …: MEDTKESNVKTFCSKNILAILGFSSIIAVIALLAVGLTQNKALPENVKYGIVLDAGSSHTSLYIYKWPAEKENDTGVVHQVEECRVKGPGISKFVQKVNEIGIYLTDCMERAREVIPRSQHQETPVYLGATAGMRLLRMESEELADRVLDVVERSLSNYPFDFQGARIITGQEAGAYGWITINYLLGKFSQKTRWFSIVPYETNNQETFGALDLGGASTQVTFVPQNQTIESPDNALQFRLYGKDYNVYTHSFLCYGKDQALWQKLAKDIQVASNEILRDPCFHPGYKKVVNVSDLYKTPCTKRFEMTLPFQQFEIQGIGNYQQCHQSILELFNTSYCPYSQCAFNGIFLPPLQGDFGAFSAFYFVMKFLNLTSEKVSQEKVTEMMKKFCAQPWEEIKTSYAGVKEKYLSEYCFSGTYILSLLLQGYHFTADSWEHIHFIGKIQGSDAGWTLGYMLNLTNMIPAEQPLSTPLSHSTYVFLMVLFSLVLFTVAIIGLLIFHKPSYFWKDMV
Platelets [1]; mutant
  effect on platelet responsiveness: no effect
[3]; alanine replacement in conserved apyrase region
  enzymatic activity of mutant: completely devoid

B2: S218A: CD39 mutant, Serine218 replaced with alanine (protein, UniProt P49961 1-510, looked up, variant S218A)
Ectonucleoside triphosphate …: MEDTKESNVKTFCSKNILAILGFSSIIAVIALLAVGLTQNKALPENVKYGIVLDAGSSHTSLYIYKWPAEKENDTGVVHQVEECRVKGPGISKFVQKVNEIGIYLTDCMERAREVIPRSQHQETPVYLGATAGMRLLRMESEELADRVLDVVERSLSNYPFDFQGARIITGQEEGAYGWITINYLLGKFSQKTRWFSIVPYETNNQETFGALDLGGAATQVTFVPQNQTIESPDNALQFRLYGKDYNVYTHSFLCYGKDQALWQKLAKDIQVASNEILRDPCFHPGYKKVVNVSDLYKTPCTKRFEMTLPFQQFEIQGIGNYQQCHQSILELFNTSYCPYSQCAFNGIFLPPLQGDFGAFSAFYFVMKFLNLTSEKVSQEKVTEMMKKFCAQPWEEIKTSYAGVKEKYLSEYCFSGTYILSLLLQGYHFTADSWEHIHFIGKIQGSDAGWTLGYMLNLTNMIPAEQPLSTPLSHSTYVFLMVLFSLVLFTVAIIGLLIFHKPSYFWKDMV
[3]; mutant
  ADPase activity retained: less than 10%

B3: pIL2LTrim1: huIL2 leader joined to solCD39 with an intervening alanine residue (SEQ ID NO:27) (protein)
chain: MALWIDRMQLLSCIALSLALVTNSATQNKALPENVKYGIVLDAGSSHTSLYIYKWPAEKENDTGVVHQVEECRVKGPGISKFVQKVNEIGIYLTDCMERAREVIPRSQHQETPVYLGATAGMRLLRMESEELADRVLDVVERSLSNYPFDFQGARIITGQEEGAYGWITINYLLGKFSQKTRWFSIVPYETNNQETFGALDLGGASTQVTFVPQNQTIESPDNALQFRLYGKDYNVYTHSFLCYGKDQALWQKLAKDIQVASNEILRDPCFHPGYKKVVNVSDLYKTPCTKRFEMTLPFQQFEIQGIGNYQQCHQSILELFNTSYCPYSQCAFNGIFLPPLQGDFGAFSAFYFVMKFLNLTSEKVSQEKVTEMMKKFCAQPWEEIKTSYAGVKEKYLSEYCFSGTYILSLLLQGYHFTADSWEHIHFIGKIQGSDAGWTLGYMLNLTNMIPAEQPLSTPLSHST
[4]; specific activity in COS-1 CM, concentration by ELISA
  Activity (pmol ATP/min/μg) × 10^3: 8.38 (pmol ATP/min/μg) × 10^3

B4: pIL2LFlagSolCD39: N-terminally FLAG-tagged solCD39 with human proinsulin/IL2 leader and 12 mature IL2 residues (SEQ ID NO:25) (protein)
chain: MALWIDRMQLLSCIALSLALVTNSAPTSSSTKKTQLTSSGDYKDDDDKTQNKALPENVKYGIVLDAGSSHTSLYIYKWPAEKENDTGVVHQVEECRVKGPGISKFVQKVNEIGIYLTDCMERAREVIPRSQHQETPVYLGATAGMRLLRMESEELADRVLDVVERSLSNYPFDFQGARIITGQEEGAYGWITINYLLGKFSQKTRWFSIVPYETNNQETFGALDLGGASTQVTFVPQNQTIESPDNALQFRLYGKDYNVYTHSFLCYGKDQALWQKLAKDIQVASNEILRDPCFHPGYKKVVNVSDLYKTPCTKRFEMTLPFQQFEIQGIGNYQQCHQSILELFNTSYCPYSQCAFNGIFLPPLQGDFGAFSAFYFVMKFLNLTSEKVSQEKVTEMMKKFCAQPWEEIKTSYAGVKEKYLSEYCFSGTYILSLLLQGYHFTADSWEHIHFIGKIQGSDAGWTLGYMLNLTNMIPAEQPLSTPLSHST
modifications: CDS (1)..(1461)
[5]
  ATPase activity, CPM Release × 10^3 (raw counts): 99.96 CPM × 10^3
[4]; 10 μL
  ATPase activity, CPM × 10^3 (net counts): 23.6 CPM × 10^3
  ATPase activity, CPM Release × 10^3 (net counts): 24.71 CPM × 10^3
[4]; 20 μL
  ATPase activity, CPM × 10^3 (net counts): 40.2 CPM × 10^3
  ATPase activity, CPM Release × 10^3 (net counts): 43.92 CPM × 10^3
[4]; 30 μL
  ATPase activity, CPM × 10^3 (net counts): 54.4 CPM × 10^3
  ATPase activity, CPM Release × 10^3 (net counts): 56.93 CPM × 10^3

B5: Abciximab: platelet-specific chimeric antibody, glycoprotein IIb/IIIa antagonist, trade name ReoPro (antibody, chains of the INN, looked up, V domains shown)
VH: EVQLQQSGTVLARPGASVKMSCEASGYTFTNYWMHWVKQRPGQGLEWIGAIYPGNSDTSYIQKFKGKAKLTAVTSTTSVYMELSSLTNEDSAVYYCTLYDGYYVFAYWGQGTLVTVSA
VL: EIVLTQSPVTLSVTPGDSVSLSCRASRDISNNLHWFQQTSHESPRLLIKYASQSMSGIPSRFSGSGSGTDFTLSINSVETEDFGMYFCQQTNSWPYTFGGGTKLEIK
modifications: Fab
notes: platelet-specific chimeric antibody, glycoprotein IIb/IIIa antagonist, trade name ReoPro
Platelets [6]; ADP, clopidogrel, ticlopidine, abciximab groups also received aspirin
  Platelet aggregation, baseline: 0 ± 0 arbitrary units
Platelets [6]; Collagen
  Platelet aggregation, baseline: 0 ± 0 arbitrary units
Platelets [6]; TRAP
  Platelet aggregation, baseline: 46 ± 6 arbitrary units

— patent US7264809B1, “Methods of inhibiting platelet activation and recruitment” (Immunex Corporation, priority 1998, dated 2007)
